Publication PMC6981274, “Structure and mechanism of a Type III CRISPR defence DNA nuclease activated by cyclic oligoadenylate” (Nature Communications, 2020)

Legend:
[1] = target: T1, Can1 wild type (UniProt Q53W14 =ME+3-636+=LE, internal_change); assay: SAXS; EMSA: 100 nM 32P-cA4, 20 mM MES pH 6.5, 100 mM NaCl, 1 mM EDTA, 5 mM MnCl2, 2 uM BSA, 10 min at room temperature; 15% native acrylamide, 1x TBE; settings: protein: recombinant; tags: N-terminal His tag removed by TEV; C-terminal Leu-Glu added by cloning; cyclic single strand of 4 nt
T1 sequence: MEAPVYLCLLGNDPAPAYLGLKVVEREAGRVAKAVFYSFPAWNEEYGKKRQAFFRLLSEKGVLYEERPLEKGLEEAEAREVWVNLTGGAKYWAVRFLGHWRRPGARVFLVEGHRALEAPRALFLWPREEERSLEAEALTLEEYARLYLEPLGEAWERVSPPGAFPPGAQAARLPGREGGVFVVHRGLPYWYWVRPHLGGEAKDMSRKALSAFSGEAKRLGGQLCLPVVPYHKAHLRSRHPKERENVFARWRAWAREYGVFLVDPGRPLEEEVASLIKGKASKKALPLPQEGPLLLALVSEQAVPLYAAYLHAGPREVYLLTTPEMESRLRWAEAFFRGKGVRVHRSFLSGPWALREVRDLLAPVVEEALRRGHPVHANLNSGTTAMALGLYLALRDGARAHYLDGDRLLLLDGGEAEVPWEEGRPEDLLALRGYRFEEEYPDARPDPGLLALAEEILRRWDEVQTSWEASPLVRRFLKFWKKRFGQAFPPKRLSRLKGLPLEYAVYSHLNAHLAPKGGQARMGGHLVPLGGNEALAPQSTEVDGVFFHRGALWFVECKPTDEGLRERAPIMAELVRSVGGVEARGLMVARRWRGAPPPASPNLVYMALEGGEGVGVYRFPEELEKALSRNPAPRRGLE

[2] = target: T2, Can1 SeMet (UniProt Q53W14 =ME+3-636+=LE, internal_change); assay: X-ray crystallography (1.83 A); EMSA: 100 nM 32P-cA4, 20 mM MES pH 6.5, 100 mM NaCl, 1 mM EDTA, 5 mM MnCl2, 2 uM BSA, 10 min at room temperature; 15% native acrylamide, 1x TBE; settings: protein: recombinant; tags: N-terminal His tag removed by TEV; C-terminal Leu-Glu added by cloning; cyclic single strand of 4 nt
T2 sequence: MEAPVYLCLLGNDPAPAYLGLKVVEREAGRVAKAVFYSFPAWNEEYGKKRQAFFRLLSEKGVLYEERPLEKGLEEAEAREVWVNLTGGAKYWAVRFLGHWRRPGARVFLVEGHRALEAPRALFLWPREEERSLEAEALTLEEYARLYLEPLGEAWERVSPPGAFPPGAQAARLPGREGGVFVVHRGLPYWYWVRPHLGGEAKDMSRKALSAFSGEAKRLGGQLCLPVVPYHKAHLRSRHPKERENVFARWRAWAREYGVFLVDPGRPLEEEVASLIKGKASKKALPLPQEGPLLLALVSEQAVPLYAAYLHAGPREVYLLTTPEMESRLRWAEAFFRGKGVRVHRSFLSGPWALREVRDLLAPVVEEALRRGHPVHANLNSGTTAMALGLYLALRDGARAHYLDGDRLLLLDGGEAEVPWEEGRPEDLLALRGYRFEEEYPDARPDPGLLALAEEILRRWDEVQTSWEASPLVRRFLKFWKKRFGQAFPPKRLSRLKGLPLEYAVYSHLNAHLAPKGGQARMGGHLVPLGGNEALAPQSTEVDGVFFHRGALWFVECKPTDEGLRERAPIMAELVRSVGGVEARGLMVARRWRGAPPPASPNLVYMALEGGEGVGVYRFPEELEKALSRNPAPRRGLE

B1: cA4 (cyclic tetra-adenylate), unlabelled (structured_RNA)
RNA: AAAA
modifications: cyclic oligoribonucleotide, no free ends
binding result [1]: binds | binding result [2]: binds
